CN104774268A

Assays:
[1] = target: EGFR on EGFR-positive cells (HT29; HCT116; MDA-MB-453) (human) (UniProt P00533); assay: flow cytometry on HT29 cells, MFI titration fitted in GraphPad Prism
[2] = target: CD3 on CD3-positive Jurkat cells (human); assay: flow cytometry on Jurkat cells, MFI titration fitted in GraphPad Prism

| Kd [1] [nM] | Kd [2] [nM] | Substance |
| --- | --- | --- |
| 0.65 | 8.73 | EGFR×CD3 MSBODY M1001 (monovalent unit from Erbitux, single-chain unit anti-CD3 L2K ScFv-Fc) (bispecific antibody) |
| 0.65 | 14.4 | EGFR×CD3 MSBODY M1003 (monovalent unit from Vectibix, single-chain unit anti-CD3 L2K ScFv-Fc) (bispecific antibody) |
